Data reported in publication PMC9304885.

Target: recombinant M. hyopneumoniae mhp390 (rMhp390) (Mycoplasma hyopneumoniae)
Assay: BLI; ForteBio Octet Red96; biotinylated rMhp390 immobilised on streptavidin (SA) biosensors, rNOD1 in solution; PBST (PBS, 0.02% Tween20); association 300 s, dissociation 600 s; 1:1 binding model

Substance “recombinant NOD1 (rNOD1), nucleotide-binding oligomerization domain 1 (receptor)” has a Kd of 8.14 µM.
